The DeepSol protein solubility set

Test: soluble on expression in E. coli; label from the status in PepcDB or PDB records

| Sequence | soluble on expression in E. coli |
| --- | --- |
| GPGSMSRSKEPPLPEELRTRLGQMDGCATAESWESVGNECFSHGCHLSAIRCYTKALEKGSDTANLRSSRSAAYMKSSMFAGPSLALKDAERAAELEPGRCEAHLRVGDAQLARKKYAEAKAAYQKAIELDGSCTAATHALRIVERELFLRSLDEQKKFSPVTEKPSGENTGTTSTGSNAEGPLNMEEEIKKRIQLWAEDTTVREDRTAMRAFNARLDEADRQAGTKYKSELLLKFRGKMAAQEPFRRMVEERRDQEMRMGEGIDYRNADSYRAILTKGTDGVGLGISTDAYKSYKYESKMW | not soluble |
| MGSDKIHHHHHHMPLLDIRNLTIELDTPHGRVKALERVSLTLNPGEVHGLVGESGSGRTLLAKAILGIPGHNWTIQADRMMWDGQNLMDMSPSERRVLMGSEMAMIFQDPISSLDPAIAVGTQIIEAMPENKELPWWKRGSDKRKKAQQWLHKVGIKETQKIMSSYAWELSDGECQKVMIAIAVANQPRLLIADEPTNSMEVRTQAQIFRLLSKLNQLQNVSILLISHELETLSQWCDRLTVMYSGQVMESGVTSDVIANPYHPYTKALLDNIPDYSNPEHHKTMMQTLPGSAPALQHLPIGCRLGPRCPQAQKLCVNQPSLCHQKDRYFACHFPYHNEPCHEEPLTKS | not soluble |
| SSEVLDGFDKVDKSLASSIDGSDKRNNLVLSELNTAYRTNPEKVKVWYERSLVLQKEADSLCTFIDDLKLAIARESDGKDAKVNDIRRKDNLDASSVIMLNPINGKGSTLRKEVDKFRELVATLMTDKAKLKLIEQALNTESGTKGKSWESSLFENMPTVAAITLLTKLQSDVRYAQGEVLADLVKSVDVGDYRVNSITAQVIPQSQIVMSGDTYKANIVLSSVDTTQRPDVFVNGKLLSPENMGLFTATAGAPGTYPVKGYIEMMGNDGVKIRRDFESEYFVTE | not soluble |
| SIRLPAHLRLQPIYWSRDDVAQWLKWAENEFSLRPIDSNTFEMNGKALLLLTKEDFRYRSPHSGDELYELLQHILKQRDHHHHHHHRHD | soluble |
| MASTARSLRYALAILTTSLVTPSVWAHAHLTHQYPAANAQVTAAPQAITLNFSEGVETGFSGAKITGPKNENIKTLPAKRNEQDQKQLIVPLADSLKPGTYTVDWHVVSVDGHKTKGHYTFSVK | soluble |
| MTKTKFEKVLLIVNPKAGQGDLHTNLTKIVPPLAAAFPDLHILHTKEQGDATKYCQEFASKVDLIIVFGGDGTVFECTNGLAPLEIRPTLAIIPGGTCNDFSRTLGVPQNIAEAAKLITKEHVKPVDVAKANGQHFLNFWGIGLVSEVSNNIDAEEKAKLGKIGYYLSTIRTVKNAETFPVKITYDGQVYEDEAVLVMVGNGEYLGGIPSFIPNVKCDDGTLDIFVVKSTGIQAFKDYIGKKLFEDSNENDIFHVKAKSIHIETEEEKEVDTDGESSLHTPCQIELLQGHFTMIYNPAVV | soluble |
| MGSDKIHHHHHHMNSLQSTHPPKLNSCDRQVILDYFENAWQLEDMLMKTLVEEDTFYLNPDPLRNPLIFYLGHSAVFYINKLISVGLLEKRINPDYEILFEIGVDPEVPEELNQAIAHLEWPQVAQTWEYRKQAYTVIAEVIKTTPITLPIHPTHPLWALMMGIEHQRIHIETSSMLIRQLPIERVKRPQNWQYAPFNGYTAQNEMIQVIGGVVKLGKAFNDPTYGWDIDYGDRTVEVEPFLASKYLITNADFSYFVKAGGYENQAYWDEESWHWKTENNIQYPKFWIHQNGIYKYRAMFDEIDLPLDWPVEVNHYEAMAYCCWQGKDTRLMSEAEYHLATYGSGLVEDVDNYNVNLKFGSPSPVGMLETAKSYSGLYDLRGNVWEHLSDNLNPLPGYKPHFLYEDNSAIFFDNKHQMMLGGCWITNGTEALKYYRNWFRPNFYQHAGFRIVQDMKH | not soluble |
| PEGPEIRRAADNLEAAIKGKPLTDVWFAFPQLKTYQSQLIGQHVTHVETRGKALLTHFSNDLTLYSHNQLYGVWRVVDTGEEPQTTRVLRVKLQTADKTILLYSASDIEMLRPEQLTTHPFLQRVGPDVLDPNLTPEVVKERLLSPRFRNRQFAGLLLDQAFLAGLGNYLRVEILWQVGLTGNHKAKDLNAAQLDALAHALLEIPRFSYATRGQVDENKHHGALFRFKVFHRDGEPCERCGSIIEKTTLSSRPFYWCPGCQH | soluble |
| MSLSYRIDVLLFNKFETLDVFGPVEIFGNLQDDFELNFISSDGGLVESSQKVRVETSLYTRDENIEKILFVPGGSGTREKVNDDNFINFIGNMVKESKYIISVCTGSALLSKAGILNGKRATTNKRSFKWVTEQNEDVLWVKEARWVKDGNIYTSSGVSAGIDMTLGFIEDLIGKEKALEISRSIEYFWNEDSNYDPFSKIYGEGHHHHHH | soluble |
| MGSSHHHHHHGGTGENLYFQGGSGDLLHFISLVIDLRDYPGYATCIRATEYPGLALCEYNAVAGMRYTVPLGYAASAVYFYLYHRPRLSFADRSLTKLHHYFYPSAGYSTPLGIIGGVICGAAECVQGLTPAALEATAAREKAAAVMAAEQYSQRHRAVKERLKAEQSFASKALAWLQLCEDPVQAELARMGLGEDSIAWETLLVPQGYLWTQLHSVVHDPARYRGYEAPVATGAAVPTSADERLSQPSGGANTPCPSPSGVLSLSRAYFTKPQVDAVVSRIGTLRTSPEEDRWMRSAGRCGAYGVFGMLLTWNSGGALFRAQMGLGLGVVIAGLASATRLDEVFAHL | not soluble |
| MDQAHANAASLEASDLFDADWYLAEYPDVQSLQMPPAVHYLWLGARLGRNPSPRFSTRSYLDANPDVAQAGINPLLHFLLAGRDEGRSGTILAAPSRGSTETDVNASTFGEHRPYVFLPPADLDRIAAQWSKDSARPDAQGRGIAIFSAITGSYDSINHHEHLIPGADYLLFSDAPKPRYVYQPRQAPWFDCDTVRAARFIKTHPHMLLGGYRIAVWIDGNILIRGDLLPLVQRFEESGLAFGAVPHPLRQSVYAEAVECMKRGKDDEATIRRQMQRYRREEFDCEDLIESNLLMFRLGHPSLAPLLDTWWAQIESGSRRDQLSLNYALHKTGVEWLALTQRPHSVRDHPALALMHHRSQFNPAEPGVCLPRPRERTFAEVRAERIAAQSARRADVIVCVHNAPEMVARCLDSVRTGQNPDRHRIIIIDDGSGRDTAELVSRFAADTPNTVLIRNAVAGGYTRAANQGLKAMDADMAILLNSDTVVAPGWIEKLLDAAFSNPGVGIVGPMSSAASHQSIPEHQSRHDQTAINDLPPGWSAADMDAWCERMAPADFLPRVPLVHGFCFAVTREAVERIGYLDEDSFPDGYGEENDYCLRATDAGVGLAIATHTYVFHEKSQSYQSDRRISLMKRGNGKIRELHGDERVARAVRSMQQNPHLGRLRTAAARLFAVTTPETPALEHHHHHH | not soluble |
| MGSDKIHHHHHHMEHECDTLPHWLTGSPQGEAGHTPAACNSAVAAQPAYPAGTRQPEKSAHAAEASRAHDRTATGVAPTGFLTLFTEEEIGTPSPAARRAAPVISPLVRFGSAQDRIEFVRQRIRQLGFDSFSYSATRTSAHHKTMFVLTSYESRSWLTRYFRERYFELDPRVALASPTGLPFLWNTADMRADLPRAQMRSERLGGLIDMLEATGRKSGILTQMPLPEPELSASLCFNSETGNPRWMTESIVAETLMFAHMIHEFIWTHAKSVIGIAPAQQQRVTLSELQHAVLRAVVQGQRDKEIAYFLGLSPHNVDYHLRRLRQLFNVRNRVQLINVAQAYVS | not soluble |
| GPGSMSVLVKGWGRGTCKINHIRDDDISSSESEGDDANVAVPLEELNVGTQHMITEEMRFRLRRKEKLSVQDDELGRLREAMRRQVFASGLLQPGQSAGVAPRRAEIIFSCAVEIQSSGLMEEAPTASPRVGDTSAWLKQLRKFILDRVPFQRSVRVMVPRTWLARAQETDVV | not soluble |
| MGSDKIHHHHHHMPFVRLDVRRPGHADRIVYVPVTTRTSYLLKSSEGGMVLRFDRGDVVAARVRPLNIGDVGALLSRRRRHKRFQLPLGRGAVLQPLLHISGPEGRELARALGSLAGWGFGTASDNLQKTLSRHFNGPQAEAPERLPTVEPKIAVALHLHYPDLWPEFEALLEATGRQFQLFLTLTRPDAALAQRVQARFPGAEITVYENRGRDVGPFIQLLREGKFDPFDLICKLHGKKSGQSGPRMVLGEIWRQVSAFDLIGSRGVVDRIIANFERSPDTQMIGSRRFRLPNEWKGEKSAWGENRAMALNLLETMGMPSSSRLDFFAGTMFWVRRGALEPLRRLDLPLAAFPEETGQQDGTLQHALERVLGMICTKIGVASDGDMTTDSREADPIG | not soluble |
| MAHILLIPANSPFVVTGALSAKVSTVEEFAQKHRAFAIFNAGFFDPANQKSTSYVVVTGQMVADPKDNERLVNNPQLKPYLNLIFNRSEFRRYLCGQTTRYDITLHNESPPANCRLVDAIGAGPRLLPKLTSVPEGFVDNAKGRDALLSKQLNARTAVGITSEGSIILVMVAQKPSKPKNSGISLVQLADLMKKLGASAAMNLDGGSSSSLYYNGKAFYGKFDLQGNPIKRKVKSVLLVQENVRNLEHHHHHH | not soluble |
| GKRLSFEDGLVLYQTKDLPTLMRLANLVRERKHGHKTYFVHSIRVSQTNICYVGCTFCAFQRRFGEEGAWDWDVDEVVAWVKERYQPGLTEIHLTAGHHPKRPFAYYLDLVRALKENFPGVQVKAWTAAEIHHFSKIARLPYREVLKALKEAGLDAMPGGGAEIFAERVRRKIARAKVSAEGWLEIHRTAHELGIPTNATMLYGHIETLEERLDHMDRLRRLQDETGGFMSFIPLAFQPDGNQLARELGKKEFTTGLDDLRNLAVARLYLDNFPHIKGYWATLTPELAQVSLDWGVTDVDGTLIEERIVHMAGSPTPQGLTKRELARIILMAGRIPVER | not soluble |
| MGDSEIYVSLDIGTASVKVIIAEMADDRLNIIGVGNVESSGIKKGIIIDIDKTVESIKKAIEQAERMVGVEISQVIVGVVSSQVHLEACRGIVAVGSENREITDEDVWNVMDAAQVVPLSPEREIINTIPDQFVVDGLTGITDPRGMIGVRLEMEGTLITGSKTILHNTLRCVERAGLEISDIALQPLAEASISLSEDDKEFGTALVNIGAGTTTVSVFEQGRLTYTGVIPVGGDNITKDLSLGLNTSTANADRVKLEHGYAFYDDASPDEVFAIDVIGSDQKQHFTQVEVADIIEARMEEIFQLVVEELNRVGKTHLPGGYVLTGGSMAIPGAIDLAGKTLAAHVRLAIPDYIGVREPSFTTAVGLIKYAYQMAELEGRDVSSTASEPRYDDEAPKQPKQKPKKSDDEKVSTKMKNFFGAFFE | not soluble |
| MGHHHHHHSHMNGRADFREPNAEVPRPIPHIGPDYIPTEEERRVFAECNDESFWFRSVPLAATSMLITQGLISKGILSSHPKYGSIPKLILACIMGYFAGKLSYVKTCQEKFKKLENSPLGEALRSGQARRSSPPGHYYQKSKYDSSVSGQSSFVTSPAADNIEMLPHYEPIPFSSSMNESAPTGITDHIVQGRNFS | soluble |
| MNFDVAIIGGGLAGLTCAIALQQRGKRCVIINNGQAAIDFASGSLDLLSRMPSTTYGENRAVENLKENITALRNELPAHPYSLLGAEKVLAKAQDFERLANELHLDLIGSTEKNHWRVTGLGSLRGAWLSPNSVPTVQGNEPFPHKRIAVLGIEGYHDFQPQLLAANLVLNPQFEHCEVTSGFLNIPQLDELRKNAREFRSVNISQLLEHKLAFKDLVKEIIESAQGAEAVFLPACFGLENQEFMTALRDATKLALFELPTLPPSLLGMRQRIQLRHKFESLGGLMINGDSALNATFEGNQVRCINTRLLEDEEITADNFVLASGSFFSKGLISEFDKIYEPVFESDIIGVEGFNNKDRFTWTAHRFAHPQPYQSAGVAINAQCQVKKCGQFLTNLYAVGNVIGGFNALELGCGSGVAVVTALAVADEILAKLEHHHHHH | soluble |
| SEKLAASTEPQGPRPVLGRESVQVPDDQDFRSFRSECEAEVGWNLTYSRAGVSVWVQAVEMDRTLHKIKCRMECCDVPAETLYDVLHDIEYRKKWDSNVIETFDIARLTVNADVGYYSWRCPKPLKNRDVITLRSWLPMGADYIIMNYSVKHPKYPPRKDLVRAVSIQTGYLIQSTGPKSCVITYLAQVDPKGSLPKWVVNKSSQFLAPKAMKKMYKACLKYPEWKQKHLPHFKPWLHPEQSPLPSLALSELSVQHADSLENIDESAVAESREERMGGAGGEGSDDDTSLT | soluble |
